Source: patent publication US20140120555A1 (PIERRE FABRE MEDICAMENT, published 2014)

Key:
chimeric antibody c515H7 [1] = target: T1, chimeric antibody c515H7; assay: SPR (Biacore X): m-FcγRI injected over c515H7 Mab immobilized on a CM4 sensorchip; heterogeneous ligand model, major component (81%)
T1 construct: Human IgG1/kappa constant domains; also called c515H7 Mab; chimeric 515H7
Procedure: (§1) 2017 RU of c515H7 Mab were immobilized using the amine coupling kit chemistry on the second flowcell (FC2) of a CM4 sensorchip. The first flowcell (FC1) activated by NHS and EDC mixture and des-activated by ethanolamine served as the reference surface to check and subtract the non specific interaction between the analyte (Fc gamma receptors) and the sensorchip matrix.
(§2) The kinetic experiments were carried out at 25° Celsius at a flow rate of 30 μl/min. The HBS-EP buffer was used either as the running buffer or for the preparation of analyte solutions. The analyte solutions were injected during 90 seconds (association phase) with a 90 seconds delay (dissociation phase). An injection of running buffer as analyte was used as a double reference. All the sensorgrams were corrected by this double reference sensorgram.
(§3) After each injection of the analyte, the sensorchip was regenerated by injection of 20 mM NaOH, 75 mM NaCl solution.

chimeric antibody c515H7 [2] = target: T1, chimeric antibody c515H7; assay: SPR (Biacore X): m-FcγRI injected over c515H7 Mab immobilized on a CM4 sensorchip; heterogeneous ligand model, minor component (19%)
Procedure: as §1, §2, §3

[3] = target: T2, humanized antibody Hz515H7 VH1 D76N VL2; assay: SPR (Biacore X): m-FcγRI injected over hz515H7VH1D76NVL2 Mab immobilized on a CM4 sensorchip; heterogeneous ligand model, minor component (18%)
T2 construct: IgG1/kappa; also called hz515H7VL2; hz515H7-1
T2 sequence (heavy, as listed by the source, chain 1 of 2): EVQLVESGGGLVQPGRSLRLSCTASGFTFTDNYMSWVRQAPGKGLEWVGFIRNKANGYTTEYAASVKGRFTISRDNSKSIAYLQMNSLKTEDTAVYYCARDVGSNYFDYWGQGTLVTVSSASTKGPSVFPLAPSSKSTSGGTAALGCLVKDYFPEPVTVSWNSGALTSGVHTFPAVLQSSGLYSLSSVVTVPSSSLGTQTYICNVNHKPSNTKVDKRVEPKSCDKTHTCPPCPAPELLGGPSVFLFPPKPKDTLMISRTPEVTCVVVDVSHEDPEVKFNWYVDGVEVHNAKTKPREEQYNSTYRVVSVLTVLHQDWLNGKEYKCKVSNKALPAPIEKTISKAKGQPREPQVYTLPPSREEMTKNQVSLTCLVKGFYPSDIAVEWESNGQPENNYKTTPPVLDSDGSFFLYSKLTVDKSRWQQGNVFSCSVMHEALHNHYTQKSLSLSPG
T2 sequence (light, as listed by the source, chain 2 of 2): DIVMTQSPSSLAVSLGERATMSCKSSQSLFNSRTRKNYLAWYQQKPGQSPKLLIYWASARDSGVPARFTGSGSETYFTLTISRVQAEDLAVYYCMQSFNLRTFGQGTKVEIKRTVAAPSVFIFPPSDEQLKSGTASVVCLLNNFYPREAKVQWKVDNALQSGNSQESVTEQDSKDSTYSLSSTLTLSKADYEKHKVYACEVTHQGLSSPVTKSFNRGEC
Procedure: as §1, with “1964” for “2017”, “hz515H7VH1D76NVL2” for “c515H7”
as §2
(§4) After each injection of the analyte, the sensorchip was regenerated by injection of either 20 mM NaOH solution after h-FcγRI and m-FcγRIII or 10 mM NaOH after h-FcγRIIIA and m-FcγRI.

[4] = target: T2, humanized antibody Hz515H7 VH1 D76N VL2; assay: SPR (Biacore X): m-FcγRI injected over hz515H7VH1D76NVL2 Mab immobilized on a CM4 sensorchip; heterogeneous ligand model, major component (82%)
Procedure: as §1, with “1964” for “2017”, “hz515H7VH1D76NVL2” for “c515H7”
as §2, §4

[5] = target: T2, humanized antibody Hz515H7 VH1 D76N VL2; assay: SPR (Biacore X): m-FcγRI injected over hz515H7VH1D76NVL2 Mab immobilized on a CM4 sensorchip; Langmuir model
Procedure: as §1, with “1964” for “2017”, “hz515H7VH1D76NVL2” for “c515H7”
as §2, §4

chimeric antibody c515H7 [6] = target: T1, chimeric antibody c515H7; assay: SPR (Biacore X): m-FcγRI injected over c515H7 Mab immobilized on a CM4 sensorchip; Langmuir model
Procedure: as §1, §2, §3

[7] = target: T2, humanized antibody Hz515H7 VH1 D76N VL2; assay: SPR (Biacore X): h-FcγRI injected over hz515H7VH1D76NVL2 Mab immobilized on a CM4 sensorchip; heterogeneous ligand model, minor component (1%)
Procedure: (§5) The experiments were carried out using a Biacore X device. The soluble forms of the four Fc […]gamma receptors used in this study were purchased from R&D Systems: […]

chimeric antibody c515H7 [8] = target: T1, chimeric antibody c515H7; assay: SPR (Biacore X): h-FcγRI injected over c515H7 Mab immobilized on a CM4 sensorchip; heterogeneous ligand model, minor component (0%)
Procedure: as §1, §2, §3

chimeric antibody c515H7 [9] = target: T1, chimeric antibody c515H7; assay: SPR (Biacore X): h-FcγRI injected over c515H7 Mab immobilized on a CM4 sensorchip; Langmuir model
Procedure: as §1, §2, §3

[10] = target: T2, humanized antibody Hz515H7 VH1 D76N VL2; assay: SPR (Biacore X): h-FcγRI injected over hz515H7VH1D76NVL2 Mab immobilized on a CM4 sensorchip; heterogeneous ligand model, major component (99%)
Procedure: as §5

chimeric antibody c515H7 [11] = target: T1, chimeric antibody c515H7; assay: SPR (Biacore X): h-FcγRI injected over c515H7 Mab immobilized on a CM4 sensorchip; heterogeneous ligand model, major component (100%)
Procedure: as §1, §2, §3

[12] = target: T2, humanized antibody Hz515H7 VH1 D76N VL2; assay: SPR (Biacore X): h-FcγRI injected over hz515H7VH1D76NVL2 Mab immobilized on a CM4 sensorchip; Langmuir model
Procedure: as §5

chimeric antibody c515H7 [13] = target: T1, chimeric antibody c515H7; assay: SPR (Biacore X): m-FcγRIII injected over c515H7 Mab immobilized on a CM4 sensorchip; Langmuir model
Procedure: as §1, §2, §3

[14] = target: T2, humanized antibody Hz515H7 VH1 D76N VL2; assay: SPR (Biacore X): m-FcγRIII injected over hz515H7VH1D76NVL2 Mab immobilized on a CM4 sensorchip; heterogeneous ligand model, minor component (34%)
[15] = target: T2, humanized antibody Hz515H7 VH1 D76N VL2; assay: SPR (Biacore X): m-FcγRIII injected over hz515H7VH1D76NVL2 Mab immobilized on a CM4 sensorchip; Langmuir model
Procedure: as §1, with “1964” for “2017”, “hz515H7VH1D76NVL2” for “c515H7”
as §2
Using the Langmuïr model the constant of dissociation was around 17 and 18 nM.

chimeric antibody c515H7 [16] = target: T1, chimeric antibody c515H7; assay: SPR (Biacore X): m-FcγRIII injected over c515H7 Mab immobilized on a CM4 sensorchip; heterogeneous ligand model, minor component (1%)
Procedure: as §1, §2, §3

[17] = target: T2, humanized antibody Hz515H7 VH1 D76N VL2; assay: SPR (Biacore X): m-FcγRIII injected over hz515H7VH1D76NVL2 Mab immobilized on a CM4 sensorchip; heterogeneous ligand model, major component (66%)
chimeric antibody c515H7 [18] = target: T1, chimeric antibody c515H7; assay: SPR (Biacore X): m-FcγRIII injected over c515H7 Mab immobilized on a CM4 sensorchip; heterogeneous ligand model, major component (99%)
Procedure: as §1, §2, §3

T1 sequence (heavy, as listed by the source, chain 1 of 2): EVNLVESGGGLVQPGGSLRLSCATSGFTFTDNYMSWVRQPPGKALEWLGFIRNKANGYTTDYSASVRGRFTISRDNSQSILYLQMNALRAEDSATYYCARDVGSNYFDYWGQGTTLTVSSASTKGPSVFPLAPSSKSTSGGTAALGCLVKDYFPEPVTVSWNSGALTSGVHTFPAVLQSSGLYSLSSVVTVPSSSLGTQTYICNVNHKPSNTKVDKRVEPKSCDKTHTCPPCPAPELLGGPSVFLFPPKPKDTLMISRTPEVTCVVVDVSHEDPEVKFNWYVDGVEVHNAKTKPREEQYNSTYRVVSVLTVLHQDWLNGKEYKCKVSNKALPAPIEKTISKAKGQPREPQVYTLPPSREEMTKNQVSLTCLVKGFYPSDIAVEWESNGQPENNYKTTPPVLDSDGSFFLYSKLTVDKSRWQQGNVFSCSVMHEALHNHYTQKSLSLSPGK
T1 sequence (light, as listed by the source, chain 2 of 2): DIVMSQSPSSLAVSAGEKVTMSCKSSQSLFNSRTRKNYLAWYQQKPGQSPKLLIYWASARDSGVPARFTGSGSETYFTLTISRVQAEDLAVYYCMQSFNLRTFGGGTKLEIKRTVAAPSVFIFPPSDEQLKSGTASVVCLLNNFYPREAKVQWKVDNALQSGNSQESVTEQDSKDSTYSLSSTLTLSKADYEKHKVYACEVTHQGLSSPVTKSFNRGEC

B1: Recombinant mouse FcγRI [CD64], Gln25-Pro297 with C-terminal 6-His tag (receptor)
chain: EVVNATKAVITLQPPWVSIFQKENVTLWCEGPHLPGDSSTQWFINGTAVQISTPSYSIPEASFQDSGEYRCQIGSSMPSDPVQLQIHNDWLLLQASRRVLTEGEPLALRCHGWKNKLVYNVVFYRNGKSFQFSSDSEVAILKTNLSHSGIYHCSGTGRHRYTSAGVSITVKELFTTPVLRASVSSPFPEGSLVTLNCETNLLLQRPGLQLHFSFYVGSKILEYRNTSSEYHIARAEREDAGFYWCEVATEDSSVLKRSPELELQVLGPQSSAPHHHHHH
notes: range 25-297; Soluble form bought from R&D Systems; also called m-FcγRI
t1/2 (chimeric antibody c515H7 [1]): 0.08 min | t1/2 (chimeric antibody c515H7 [2]): 0.3 min | t1/2 [3]: 0.53 min | t1/2 [4]: 0.11 min | t1/2 [5]: 0.18 min | t1/2 (chimeric antibody c515H7 [6]): 0.17 min

B2: Recombinant human FcγRI [CD64], Gln16-Pro288 with C-terminal 6-His tag (receptor)
chain: QVDTTKAVITLQPPWVSVFQEETVTLHCEVLHLPGSSSTQWFLNGTATQTSTPSYRITSASVNDSGEYRCQRGLSGRSDPIQLEIHRGWLLLQVSSRVFTEGEPLALRCHAWKDKLVYNVLYYRNGKAFKFFHWNSNLTILKTNISHNGTYHCSGMGKHRYTSAGISVTVKELFPAPVLNASVTSPLLEGNLVTLSCETKLLLQRPGLQLYFSFYMGSKTLRGRNTSSEYQILTARREDSGLYWCEAATEDGNVLKRSPELELQVLGLQLPTPHHHHHH
notes: range 16-288; Soluble form bought from R&D Systems; also called h-FcγRI
t1/2 [7]: 578 min | t1/2 (chimeric antibody c515H7 [8]): 158 min | t1/2 (chimeric antibody c515H7 [9]): 19.3 min | t1/2 [10]: 28.9 min | t1/2 (chimeric antibody c515H7 [11]): 19.3 min | t1/2 [12]: 21.4 min

B3: Recombinant mouse FcγRIII [CD16], Ala31-Thr215 with C-terminal 10-His tag (receptor)
chain: ALPKAVVKLDPPWIQVLKEDMVTLMCEGTHNPGNSSTQWFHNGRSIRSQVQASYTFKATVNDSGEYRCQMEQTRLSDPVDLGVISDWLLLQTPQRVFLEGETITLRCHSWRNKLLNRISFFHNEKSVRYHHYKSNFSIPKANHSHSGDYYCKGSLGSTQHQSKPVTITVQDPATTSSISLVWYHTHHHHHHHHHH
notes: Soluble form bought from R&D Systems; also called m-FcγRIII
t1/2 (chimeric antibody c515H7 [13]): 2.61 min | t1/2 [14]: 0.39 min | t1/2 [15]: 3.17 min | t1/2 (chimeric antibody c515H7 [16]): 4.85 min | t1/2 [17]: 313 min | t1/2 (chimeric antibody c515H7 [18]): 2.59 min
